Laboratory results taken from US6673896.

Molecular target: T4 glycoprotein (human T cell surface protein T4) (human) (UniProt P01730)
Test: cell-based or functional assay

With OKT4A monoclonal antibody the VSV PSEUDOTYPE TITER, VSV(AIDS) +αT4A, CEM(T4+) cells was 200 PFU/ml, the VSV PSEUDOTYPE TITER, VSV(AIDS) +αT4A, HSB2-T4+ cells was 300 PFU/ml and the VSV PSEUDOTYPE TITER, VSV(AIDS) +αT4A, HeLa-T4+ cells was 200 PFU/ml. For the same substance, the VSV PSEUDOTYPE TITER, VSV(AIDS) +αT4A, Raji-T4+ cells was 150 PFU/ml.
